Reference: publication PMC8583942, “An Engineered Thermostable Laccase with Great Ability to Decolorize and Detoxify Malachite Green” (International Journal of Molecular Sciences, 2021)

Substrate: CCn1c(=NN=c2sc3cc(S(=O)(=O)O)ccc3n2CC)sc2cc(S(=O)(=O)O)ccc21
Assay: purified protein
Assay type: biochemical, Geothermobacter hydrogeniphilus
Details: 1 mM CuSO4, 20 mM acetate pH 4.0, 60 °C

B1: Ghlac WT (Geothermobacter hydrogeniphilus) (protein)
chain: MKMARNGKISYLEPEWITGSLRAGFTTRNGGISRAPYNSLNLGLNTEDPRPNVEGNRSTLVRAFGLEVHQLLTVRQVHGNNILVVDEPNPDLSHFQQVECDAIISNQPGMMIGVLVADCYPVLLAAPAQGVVAAVHVGWRGAVAQIIQRTVDALQEQFGVCPEELLAAVGPGIGAHAYEVDRPVRDQFRKAGLPWAGVAEESRLGHWKLDLRETCRRQLLTAGVVRTHIDLAEECTCCHRELLFSHRRDNGRTGRQLGFILLT
notes: codon-optimized in pET-28a(+) NcoI/XhoI; E. coli BL21(DE3)
For B1, the Km was 1300 µM and the kcat was 2.095 s⁻¹.
